This is an account of results in publication PMC12101266.

In experiment [1] the target is casein.
In experiment [2] the target is casein. This is another data set of the same source.

Where two headings read alike, the source gives them in different places.

As for “purified S. trilobatum serine protease (StSP) (enzyme)”, the Km of casein proteolysis (substrate–velocity curve, UV absorbance at 280 nm, casein 7–80 µM, 37 °C, 50 mM Tris pH 7.8) with casein [1] worked out at 14.6 µM; with casein [2] it was 14.1 µM/min.
